Results from the supplement of paper PMC9233669.
Fewer inactive variants are shown than the library holds.

Assays:
biotinyl-Phe-oxazolone = test: self-aminoacylation, catalytic enhancement (BFO) (fold over background); higher = more active; k-Seq, kA / k0A0; sequences stand for … in GGGAAUGGAUCCACAUCUACGAAUUC…UUCACUGCAGACUUGACGAAGCUG
Procedure, shortened: (§1)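 The uncatalyzed rate is the low-activity peak of a bimodal Gaussian fit, and catalytic enhancement is median kA divided by it. The kA values came from pseudo-first-order fits, with 1000 bootstraps, of per-sequence fraction reacted measured by streptavidin capture, triplicate qPCR and Illumina sequencing. Mutagenized RNA pools with a 21-nt variable region (0.43 μM) were reacted with each biotinyl-aminoacyl-oxazolone at 2–1250 μM in 50 μL HEPES/NaCl/KCl/MgCl2/CaCl2 buffer with 5% acetonitrile, pH 6.9–7.0, for 90 minutes at room temperature.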

biotinyl-Met-oxazolone = test: self-aminoacylation, catalytic enhancement (BMO) (fold over background); higher = more active; k-Seq, kA / k0A0; sequences stand for … in GGGAAUGGAUCCACAUCUACGAAUUC…UUCACUGCAGACUUGACGAAGCUG
Procedure, shortened: as §1

biotinyl-Trp-oxazolone = test: self-aminoacylation, catalytic enhancement (BWO) (fold over background); higher = more active; k-Seq, kA / k0A0; sequences stand for … in GGGAAUGGAUCCACAUCUACGAAUUC…UUCACUGCAGACUUGACGAAGCUG
Procedure, shortened: as §1

biotinyl-Val-oxazolone = test: self-aminoacylation, catalytic enhancement (BVO) (fold over background); higher = more active; k-Seq, kA / k0A0; sequences stand for … in GGGAAUGGAUCCACAUCUACGAAUUC…UUCACUGCAGACUUGACGAAGCUG
Procedure, shortened: as §1

biotinyl-Leu-oxazolone = test: self-aminoacylation, catalytic enhancement (BLO) (fold over background); higher = more active; k-Seq, kA / k0A0; sequences stand for … in GGGAAUGGAUCCACAUCUACGAAUUC…UUCACUGCAGACUUGACGAAGCUG
Procedure, shortened: as §1

Row | Sequence | self-aminoacylation (biotinyl-Phe-oxazolone) | self-aminoacylation (biotinyl-Met-oxazolone) | self-aminoacylation (biotinyl-Trp-oxazolone) | self-aminoacylation (biotinyl-Val-oxazolone) | self-aminoacylation (biotinyl-Leu-oxazolone)
1 | ACGUUUGCUAAAAGUCGCAAG [Fam3.1 aminoacylation ribozyme variant] | 3.93 | 2.09 | 3.43 | – | –
2 | AUUACCCUGGCCUUCGAGUGA [Fam2.1 aminoacylation ribozyme variant] | 17.9 | 3.21 | 5.17 | 2.53 | 4.36
3 | AUUCACCUCGGUCAUCGGGUC [Fam2.2 aminoacylation ribozyme variant] | 9.78 | – | – | 2.01 | 2.04
4 | GAGUUUGCUAAAAGUCGCAAG [Fam3.1 aminoacylation ribozyme variant] | 8.71 | – | 5.66 | 2.1 | –
5 | AAGUUUGCGAAUAGUCGCAAU [Fam3.1 aminoacylation ribozyme variant] | 6.18 | 2.13 | – | – | –
6 | CCCCACGUCAAGCAAUCGGUC [Fam1B.1 aminoacylation ribozyme variant] | 5.6 | – | 2.49 | 2.4 | –
7 | GAGCUUGCUAAUAGUCGCAAG [Fam3.1 aminoacylation ribozyme variant] | 4.81 | 2.03 | 2.4 | 2.02 | –
8 | AUUGCCCUGGUCAUCGUGUGA [Fam2.1 aminoacylation ribozyme variant] | 24 | 2.93 | 3.2 | – | 3.19
9 | AUUACACUGGUCAUAGAGUGA [Fam2.1 aminoacylation ribozyme variant] | 8.72 | 3.15 | 3.92 | 2.13 | 3.62
10 | AUUCACCUAGUUCAUAGGGUG [Fam2.2 aminoacylation ribozyme variant] | 15.4 | 3.63 | 3.14 | – | 3.8
11 | AUUACCCUUGUCAUCGUGUGA [Fam2.1 aminoacylation ribozyme variant] | 5.78 | 2.59 | 2.88 | – | 2.69
12 | AUUCACGUAGGUCAUCGGGAG [Fam2.2 aminoacylation ribozyme variant] | – | 2.07 | – | 2.13 | –
13 | AUUACCUUCGUCAUCGAGUGA [Fam2.1 aminoacylation ribozyme variant] | 2.48 | 2.22 | 2.15 | – | 2.18
14 | AUUACCCUGGUCCUCGAGGGA [Fam2.1 aminoacylation ribozyme variant] | – | – | 2.37 | 2.15 | –
15 | AAAUUUGCUAAUUGUCGCAAG [Fam3.1 aminoacylation ribozyme variant] | – | 2.03 | – | – | –
16 | AUUACCCUGAUCAGCGAGUGA [Fam2.1 aminoacylation ribozyme variant] | 3.1 | 2.71 | 4.93 | 2.3 | 2.74
17 | AUUCACCUAGGUCAUCGCGAG [Fam2.2 aminoacylation ribozyme variant] | 4.46 | – | – | 2.31 | –
18 | AUUCACCUUGGUCAUCGGGGG [Fam2.2 aminoacylation ribozyme variant] | 13 | 2.04 | 2.28 | 2.04 | 2.84
19 | AUUACCCUGGUCACCGAGUAA [Fam2.1 aminoacylation ribozyme variant] | 10.1 | 2.62 | – | 2.34 | 2.46
20 | AUUACCAUGCUCAUCGAGUGA [Fam2.1 aminoacylation ribozyme variant] | 2.98 | 2.63 | 2.15 | – | 2.12
21 | AUUACCCUGGUCAGCGAGCGA [Fam2.1 aminoacylation ribozyme variant] | – | 2.34 | – | 2.08 | 2.33
22 | CCCCACUGCAAGCAAUCGGUC [Fam1B.1 aminoacylation ribozyme variant] | 4.31 | – | 3.43 | 2.35 | –
23 | CCACACUUCAAGCAGUCGGCC [Fam1B.1 aminoacylation ribozyme variant] | 4.85 | 2.22 | – | 2.84 | 2.47
24 | AAGUUUGCCAAUAGUCGCAGG [Fam3.1 aminoacylation ribozyme variant] | 15.8 | 2.73 | 3.26 | 2.08 | 2.33
25 | AUUACCCUGGACAUCAAGUGA [Fam2.1 aminoacylation ribozyme variant] | 5.55 | 2.33 | 2.98 | – | 2.29

Row | Sequence | self-aminoacylation (biotinyl-Phe-oxazolone) | self-aminoacylation (biotinyl-Met-oxazolone) | self-aminoacylation (biotinyl-Trp-oxazolone) | self-aminoacylation (biotinyl-Val-oxazolone) | self-aminoacylation (biotinyl-Leu-oxazolone)
26 | AGUACCCUGGUCAUCGUGUGA [Fam2.1 aminoacylation ribozyme variant] | 16.3 | 3.07 | 3.88 | 2.06 | 3.43
27 | AUUAUCCUCGUCAUCGAGUGA [Fam2.1 aminoacylation ribozyme variant] | 5.23 | 2.95 | 3 | – | 2.75
28 | CCACACUUCUAGCAAUCGGCC [Fam1B.1 aminoacylation ribozyme variant] | – | 2.54 | 2.72 | 2.2 | 2.06
29 | AGGUUUGCUAAAAGUCGCAAG [Fam3.1 aminoacylation ribozyme variant] | 10.5 | 2.13 | 4.38 | – | –
30 | AAGCUUGCUAAUAGUCGCAAA [Fam3.1 aminoacylation ribozyme variant] | 2.75 | 2.21 | 2.2 | – | –
31 | AUACACCUAGGUCAUCGGCUG [Fam2.2 aminoacylation ribozyme variant] | 4 | 2.13 | – | – | 2.03
32 | CUACCUCAAACAAUCGGGCUG [Fam1A.1 aminoacylation ribozyme variant] | 2.01 | 2.02 | – | – | 2.4
33 | CCACACUUCAAGCAAUCGCUU [Fam1B.1 aminoacylation ribozyme variant] | – | 2.06 | – | – | 2.09
34 | CGCCACUUCAAGCAAUCGGUC [Fam1B.1 aminoacylation ribozyme variant] | 37.1 | – | 24.2 | – | 2.26
35 | CCAUACUUCAAGCAAUCGGCC [Fam1B.1 aminoacylation ribozyme variant] | 2.88 | 2.36 | 3.74 | – | 2.33
36 | CCACGCUUCAAACAAUCGGUC [Fam1B.1 aminoacylation ribozyme variant] | 92.8 | – | 45.3 | – | 2.17
37 | AAAGUUGCUAAUAGUCGCAAG [Fam3.1 aminoacylation ribozyme variant] | 3.77 | 2.06 | – | – | –
38 | AUUCACCUACGUCAUCUGGUG [Fam2.2 aminoacylation ribozyme variant] | 6.74 | 2.09 | – | – | 2.24
39 | AUUACCUUGGUCCUCGAGUGA [Fam2.1 aminoacylation ribozyme variant] | 17.8 | 3.05 | 4.39 | 2.11 | 3.95
40 | AUUCACGUAGGUCAUCGAGUG [Fam2.2 aminoacylation ribozyme variant] | 2.42 | 2.92 | 2.73 | – | 2.67
41 | AAGUUCGCGAAUAGUCGCAAG [Fam3.1 aminoacylation ribozyme variant] | 5.66 | 2.31 | 3.3 | – | –
42 | CCACACUUCAAGCAAUGGGUG [Fam1B.1 aminoacylation ribozyme variant] | 10.7 | 2.61 | 2.39 | 2.24 | 3
43 | CCACACUUCAAGCAUUCGGUA [Fam1B.1 aminoacylation ribozyme variant] | – | – | – | 2.44 | –
44 | AUUACCCUGGUCAACGAGUGU [Fam2.1 aminoacylation ribozyme variant] | 6.18 | 2.91 | 3.43 | – | 3
45 | AUUCGCCUAGGUCAUAGGGUG [Fam2.2 aminoacylation ribozyme variant] | 7.92 | 2.16 | – | – | 2.47
46 | AUUUCCCUGGUCAUCGAGCGA [Fam2.1 aminoacylation ribozyme variant] | – | 2.25 | 2.59 | – | 2.18
47 | AUUGACCUAGCUCAUCGGGUG [Fam2.2 aminoacylation ribozyme variant] | 11 | 2.14 | 2.71 | – | –
48 | CCACACUUCAGGCGAUCGGUC [Fam1B.1 aminoacylation ribozyme variant] | 4.75 | 2.1 | – | 2.42 | –
49 | CCACACCUCAAGCAAUCGGUA [Fam1B.1 aminoacylation ribozyme variant] | – | – | – | 2.1 | –
